These results are taken from patent publication EP1189630B1.

In this assay the target is bovine hemoglobin (bovine) (UniProt P01966). Briefly: solid-phase ligand binding assay (ELISA), hemoglobin-coated wells; one value printed for rHA2, RgpA and Kgp.
UniProt P01966, sequence (P01966 2-142 limits assumed, chain 1 of 2): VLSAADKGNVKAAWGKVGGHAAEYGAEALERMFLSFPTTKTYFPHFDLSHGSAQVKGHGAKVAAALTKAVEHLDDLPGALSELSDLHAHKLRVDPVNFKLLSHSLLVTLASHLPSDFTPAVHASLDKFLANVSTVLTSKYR
UniProt P01966, sequence (P02070 whole entry, chain 2 of 2, further chain): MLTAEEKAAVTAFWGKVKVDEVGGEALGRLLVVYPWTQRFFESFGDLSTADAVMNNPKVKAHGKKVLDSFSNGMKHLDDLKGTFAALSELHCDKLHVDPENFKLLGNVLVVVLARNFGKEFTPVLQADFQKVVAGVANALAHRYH

“polydomain Arg-gingipain RgpA isolated from P. gingivalis (ATCC 33277) (from UniProt P28784 228-991) (enzyme)”: the Kd (in general, the concentration at which binding is half-saturated) is 2.1 nM.
